# In patent US20170226204A1 (PERONGEN BIOTHERAPEUTICS SUZHOU, published 2017):
# Substitutions are numbered along the chain they refer to.
# T1: human CD7 molecule (human, UniProt P09564 26-240)
# T1 construct: whole, on cells; also called CD7 protein
# T1 sequence (looked up): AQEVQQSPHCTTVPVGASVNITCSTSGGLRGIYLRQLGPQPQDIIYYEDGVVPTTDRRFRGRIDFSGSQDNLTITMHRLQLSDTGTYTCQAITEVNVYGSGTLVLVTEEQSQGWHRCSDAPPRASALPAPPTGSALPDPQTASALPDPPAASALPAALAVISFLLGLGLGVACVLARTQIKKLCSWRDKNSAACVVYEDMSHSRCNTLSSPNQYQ
# B1: anti-human CD7 nanobody clone 1 (VHH)
# VHH: DVQLQESGGGSVQAGGSLRLSCPASGYTFSHYCMGWNRQAPGKEREEVATIDTDDTPTYADSVMGRFTISRDNANNALYLQMNDLKPEDTSMYYCAIWMKLRGSCHDRRLEVRGQGTQVTVSI
# B2: anti-human CD7 nanobody clone 3 (VHH)
# VHH: B1 VHH with N37L, D55S, I97T, K100G
# B3: anti-human CD7 nanobody clone 4 (VHH)
# VHH: DVQLQESGGGSVQAGGSLRLSCAASGYTTSRLCMAWFRQFPGKEREGVANVRLGGYKPAYADSVKGRFTLSEDSAKNTVYLEMNSLQPEDTAMYYCAADPGGGGSCPVALVRGDFDYWGQGTQVTVSI
# B4: anti-human CD7 nanobody clone 6 (VHH)
# VHH: DVQLQESGGGSVQAGGSLRLSCAASGYTYSTYCMGWFRQAPGKEREGVATIDSDGSTSYADSVKGRFTISRDNAKNTLNLQMSSLKPEDTAMYYCAARFGPMGCVDLSTLSFGHWGQGTQVTVSI
# Target: T1, human CD7 molecule
# Assay: phage whole-cell ELISA, 293T-CD7+ against 293T-CD7- cells; positive when OD is 2.5 times that of the control well
row,Binder,binding result
1,B1,binds
2,B2,binds
3,B3,binds
4,B4,binds
